Earlier results as cited in publication PMC4138051.
Read-outs that look alike come from different tables or passages of the source.

What was measured:
MLL 1-160 (Homo sapiens) [1] = molecular target: MLL 1-160 (Homo sapiens) (UniProt Q03164)
[2] = molecular target: MLL MBM1 6-13 (Homo sapiens) (UniProt Q03164)
[3] = molecular target: MLL MBM2 24-40 (Homo sapiens) (UniProt Q03164)
MLL 1-160 (Homo sapiens) [4] = molecular target: MLL 1-160 (Homo sapiens) (UniProt Q03164); remark: listed apart in the source

- Kd (MLL 1-160 (Homo sapiens) [1]): 10 nM
- Kd [2]: 56 nM
- Kd [3]: 1000 nM
- Kd (MLL 1-160 (Homo sapiens) [4]): 1500 nM
Substance: menin (from UniProt O00255)
